We go through eight molecules from article PMC12255303, “Regulation of a phage defence island by RptR, a novel repressor that controls restriction–modification systems in diverse bacteria”.

The target in series [1] is RptR (RMS-proximal transcriptional regulator) with an N-terminal His6 tag and 3C protease cleavage site (Escherichia coli O127:H6 E2348/69 (EPEC)). Kind of series: SEC; analytical SEC on Superdex 75 Increase 10/300 GL, calibrated with five low-MW standards; MW of His6-3C-RptR interpolated from elution volumes of the purification (SEC buffer 25 mM Tris-HCl pH 8, 200 mM KCl). In general terms: SEC sorts molecules by how far they enter the pores of the column.

Series [2] has as its target T1, RptR (His6-3C-RptR) (Escherichia coli O127:H6 E2348/69 (EPEC), UniProt B7UP23 1-79).
T1 sequence: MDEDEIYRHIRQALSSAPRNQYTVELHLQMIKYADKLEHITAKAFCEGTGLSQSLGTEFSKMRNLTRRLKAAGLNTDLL
The series can be described thus: EMSA; per RptR dimer; Hill coefficient 3.4; EMSA: 25 mM Tris-HCl pH 8, 150 mM NaCl, 5 mM MgCl2, 0.05 uM dsDNA, 37 C 30 min then 4 C; 8% TBE-PAGE at 4 C, SYBR Gold. The conditions noted are these: protein: recombinant; tags: N-terminal His6 and 3C protease site (cleavage not described); chain copies: 2; blunt. In general terms: Mobility shift assays separate free from complexed probe on a gel.

In series [3] the target is T1, RptR (His6-3C-RptR). Kind of series: EMSA; single shift. The note with it: protein: recombinant; tags: N-terminal His6 and 3C protease site (cleavage not described); chain copies: 2; blunt.
The target in series [4] is T1, RptR (His6-3C-RptR). Kind of series: EMSA; higher shift only. The note with it: protein: recombinant; tags: N-terminal His6 and 3C protease site (cleavage not described); chain copies: 2; blunt.
Series [5] deals with T1, RptR (His6-3C-RptR). The series can be described thus: EMSA; binding abolished. The conditions noted are these: protein: recombinant; tags: N-terminal His6 and 3C protease site (cleavage not described); chain copies: 2; blunt.
The target of series [6] is T1, RptR (His6-3C-RptR). The series can be described thus: EMSA; same shift as DR1/s/3. The note with it: protein: recombinant; tags: N-terminal His6 and 3C protease site (cleavage not described); chain copies: 2; blunt.
For series [7], the target named is T1, RptR (His6-3C-RptR). Kind of series: EMSA; up to 1.2 uM RptR; EMSA: 25 mM Tris-HCl pH 8, 150 mM NaCl, 5 mM MgCl2, 0.05 uM dsDNA, 37 C 30 min then 4 C; 8% TBE-PAGE at 4 C, SYBR Gold. The note with it: protein: recombinant; tags: N-terminal His6 and 3C protease site (cleavage not described); chain copies: 2; blunt.

A word on the stoichiometry N: it is a count of units in the complex or per binding partner. The molecule “RptR (RMS-proximal transcriptional regulator) with an N-terminal His6 tag and 3C protease cleavage site (natural protein)” had a stoichiometry N in series [1] of 2.

B1: DR1/2/3 (WT) (dsDNA)
DNA 1: AGTTCTTGAACCTGATACCACATTTAGCTAATTTAGCTAATTTAGCTAACTTATCCATTA
DNA 2: TAATGGATAAGTTAGCTAAATTAGCTAAATTAGCTAAATGTGGTATCAGGTTCAAGAACT
Usually Kd stands for a measure of binding affinity in units of concentration. In the case of B1, in the series with RptR (His6-3C-RptR) [2], the dissociation constant (Kd) is 185 nM.

B2: DRs/2/3 (dsDNA)
DNA 1: AGTTCTTGAACCTGATACCACATTGAATCTATTTAGCTAATTTAGCTAACTTATCCATTA
DNA 2: TAATGGATAAGTTAGCTAAATTAGCTAAATAGATTCAATGTGGTATCAGGTTCAAGAACT
In the case of B2, the binding result with RptR (His6-3C-RptR) [3] was “binds”.

B3: DR1/s/3 (dsDNA)
DNA 1: AGTTCTTGAACCTGATACCACATTTAGCTAATTGAATCTATTTAGCTAACTTATCCATTA
DNA 2: TAATGGATAAGTTAGCTAAATAGATTCAATTAGCTAAATGTGGTATCAGGTTCAAGAACT
For the molecule B3, the binding result with RptR (His6-3C-RptR) [4] is on record as “binds”.

B4: DR1/2/3 C6G (labelled C5G in Fig S4) (dsDNA)
DNA 1: AGTTCTTGAACCTGATACCACATTTAGGTAATTTAGGTAATTTAGGTAACTTATCCATTA
DNA 2: TAATGGATAAGTTACCTAAATTACCTAAATTACCTAAATGTGGTATCAGGTTCAAGAACT
In the case of B4, the binding result with RptR (His6-3C-RptR) [5] is given as “no binding”.

B5: DR1/2/s (WT control) (dsDNA)
DNA 1: AGTTCTTGAACCTGATACCACATTTAGCTAATTTAGCTAATTGAATCTACTTATCCATTA
DNA 2: TAATGGATAAGTAGATTCAATTAGCTAAATTAGCTAAATGTGGTATCAGGTTCAAGAACT
As for B5, the binding result with RptR (His6-3C-RptR) [3] is “binds”.

B6: DR1/r/3 (dsDNA)
DNA 1: AGTTCTTGAACCTGATACCACATTTAGCTAAGAGAGAGAGTTTAGCTAACTTATCCATTA
DNA 2: TAATGGATAAGTTAGCTAAACTCTCTCTCTTAGCTAAATGTGGTATCAGGTTCAAGAACT
With B6, the binding result with RptR (His6-3C-RptR) [6] is listed as “binds”.

B7: DRs/s/s (dsDNA)
DNA 1: AGTTCTTGAACCTGATACCACATTGAATCTATTGAATCTATTGAATCTACTTATCCATTA
DNA 2: TAATGGATAAGTAGATTCAATAGATTCAATAGATTCAATGTGGTATCAGGTTCAAGAACT
As for B7, in the series with RptR (His6-3C-RptR) [7], the binding result is given as “no binding”.
